Reference: the Human Domainome abundance scans (Beltran et al. 2025)
± gives the uncertainty stated by the source.

B1: Proto-oncogene vav, residues 782 to 842; numbered along this chain, P15498 (parent)
chain: KYFGTAKARYDFCARDRSELSLKEGDIIKILNKKGQQGWWRGEIYGRVGWFPANYVEEDYS

Variants of: B1
Test: abundance fitness (aPCA) (normalised: wild type 0, dead -1); higher = more abundant; growth selection in yeast, the domain comes from the species named
Conditions: Homo sapiens
In the case of KYFGTAKARYDFCARDRSELSLKEGDWIKILNKKGQQGWWRGEIYGRVGWFPANYVEEDYS, the abundance fitness is reported as -0.324 ± 0.12. With KYFGTAKARYDFCARDRSELSLKEGDYIKILNKKGQQGWWRGEIYGRVGWFPANYVEEDYS the abundance fitness was -0.294 ± 0.14. Work on KYFGTAKARYDFCARDRSELSLKEGDVIKILNKKGQQGWWRGEIYGRVGWFPANYVEEDYS yielded an abundance fitness of 0.065 ± 0.07. Work on KYFGTAKARYDFCARDRSELSLKEGDKIKILNKKGQQGWWRGEIYGRVGWFPANYVEEDYS yielded an abundance fitness of -0.22 ± 0.13. With KYFGTAKARYDFCARDRSELSLKYGDIIKILNKKGQQGWWRGEIYGRVGWFPANYVEEDYS the abundance fitness was -0.231 ± 0.062. Variant KYFGTAKARYDFCARDRSELSLKEQDIIKILNKKGQQGWWRGEIYGRVGWFPANYVEEDYS has an abundance fitness of -0.957 ± 0.41. For KYFGTAKARYDFCARDRSELSLKENDIIKILNKKGQQGWWRGEIYGRVGWFPANYVEEDYS, the abundance fitness was -0.675 ± 0.27. With KYFGTAKARYDFCARDRSELSLKESDIIKILNKKGQQGWWRGEIYGRVGWFPANYVEEDYS the abundance fitness was -0.818 ± 0.12. KYFGTAKARYDFCARDRSELSLKEYDIIKILNKKGQQGWWRGEIYGRVGWFPANYVEEDYS gave an abundance fitness of -1.02 ± 0.41. Variant KYFGTAKARYDFCARDRSELSLKETDIIKILNKKGQQGWWRGEIYGRVGWFPANYVEEDYS has an abundance fitness of -0.97 ± 0.23. KYFGTAKARYDFCARDRSELSLKECDIIKILNKKGQQGWWRGEIYGRVGWFPANYVEEDYS gave an abundance fitness of -0.895 ± 0.28. KYFGTAKARYDFCARDRSELSLKEPDIIKILNKKGQQGWWRGEIYGRVGWFPANYVEEDYS showed an abundance fitness of -0.615 ± 0.14. Work on KYFGTAKARYDFCARDRSELSLKEVDIIKILNKKGQQGWWRGEIYGRVGWFPANYVEEDYS yielded an abundance fitness of -1.21 ± 0.32. For KYFGTAKARYDFCARDRSELSLKEFDIIKILNKKGQQGWWRGEIYGRVGWFPANYVEEDYS, the abundance fitness was -0.786 ± 0.28. In the case of KYFGTAKARYDFCARDRSELSLKERDIIKILNKKGQQGWWRGEIYGRVGWFPANYVEEDYS, the abundance fitness is reported as -0.667 ± 0.091. Variant KYFGTAKARYDFCARDRSELSLKEHDIIKILNKKGQQGWWRGEIYGRVGWFPANYVEEDYS has an abundance fitness of -0.975 ± 0.34. With KYFGTAKARYDFCARDRSELSLKELDIIKILNKKGQQGWWRGEIYGRVGWFPANYVEEDYS the abundance fitness was -0.904 ± 0.12. In the case of KYFGTAKARYDFCARDRSELSLKEMDIIKILNKKGQQGWWRGEIYGRVGWFPANYVEEDYS, the abundance fitness is reported as -0.742 ± 0.12. In the case of KYFGTAKARYDFCARDRSELSLKEADIIKILNKKGQQGWWRGEIYGRVGWFPANYVEEDYS, the abundance fitness is reported as -0.721 ± 0.18. For KYFGTAKARYDFCARDRSELSLKEWDIIKILNKKGQQGWWRGEIYGRVGWFPANYVEEDYS, the abundance fitness was -0.498 ± 0.1. Work on KYFGTAKARYDFCARDRSELSLKEDDIIKILNKKGQQGWWRGEIYGRVGWFPANYVEEDYS yielded an abundance fitness of -0.518 ± 0.17. KYFGTAKARYDFCARDRSELSLKEGDIIKLLNKKGQQGWWRGEIYGRVGWFPANYVEEDYS gave an abundance fitness of -0.319 ± 0.055. With KYFGTAKARYDFCARDRSELSLKEGDIIKELNKKGQQGWWRGEIYGRVGWFPANYVEEDYS the abundance fitness was -0.876 ± 0.46. Variant KYFGTAKARYDFCARDRSELSLKEGDIIKGLNKKGQQGWWRGEIYGRVGWFPANYVEEDYS has an abundance fitness of -0.675 ± 0.11. Work on KYFGTAKARYDFCARDRSELSLKEGDIIKALNKKGQQGWWRGEIYGRVGWFPANYVEEDYS yielded an abundance fitness of -0.552 ± 0.12. Variant KYFGTAKARYDFCARDRSELSLKEGDIIKFLNKKGQQGWWRGEIYGRVGWFPANYVEEDYS has an abundance fitness of -0.776 ± 0.38. For KYFGTAKARYDFCARDRSELSLKEGDIIHILNKKGQQGWWRGEIYGRVGWFPANYVEEDYS, the abundance fitness was -0.082 ± 0.11. In the case of KYFGTAKARYDFCARDRSELSLKEGDIILILNKKGQQGWWRGEIYGRVGWFPANYVEEDYS, the abundance fitness is reported as -0.068 ± 0.053. In the case of KYFGTAKARYDFCARDRSELSLKEGDIIGILNKKGQQGWWRGEIYGRVGWFPANYVEEDYS, the abundance fitness is reported as -0.281 ± 0.088. Variant KYFGTAKARYDFCARDRSELSLKEGDIIPILNKKGQQGWWRGEIYGRVGWFPANYVEEDYS has an abundance fitness of -0.462 ± 0.14. In the case of KYFGTAKARYDFCARDRSELSLKEGDIIMILNKKGQQGWWRGEIYGRVGWFPANYVEEDYS, the abundance fitness is reported as -0.095 ± 0.099. For KYFGTAKARYDFCARDRSELSLKEGDIIEILNKKGQQGWWRGEIYGRVGWFPANYVEEDYS, the abundance fitness was -0.493 ± 0.12. KYFGTAKARYDFCARDRSELSLKEGDIIAILNKKGQQGWWRGEIYGRVGWFPANYVEEDYS gave an abundance fitness of -0.225 ± 0.089. In the case of KYFGTAKARYDFCARDRSELSLKEGDIITILNKKGQQGWWRGEIYGRVGWFPANYVEEDYS, the abundance fitness is reported as -0.103 ± 0.088. KYFGTAKARYDFCARDRSELSLKEGDIIWILNKKGQQGWWRGEIYGRVGWFPANYVEEDYS showed an abundance fitness of -0.4 ± 0.1. With KYFGTAKARYDFCARDRSELSLKEGDIISILNKKGQQGWWRGEIYGRVGWFPANYVEEDYS the abundance fitness was -0.092 ± 0.069. KYFGTAKARYDFCARDRSELSLKEGDIINILNKKGQQGWWRGEIYGRVGWFPANYVEEDYS gave an abundance fitness of -0.033 ± 0.1. KYFGTAKARYDFCARDRSELSLKEGDIIYILNKKGQQGWWRGEIYGRVGWFPANYVEEDYS gave an abundance fitness of -0.217 ± 0.18. Work on KYFGTAKARYDFCARDRSELSLKEGDIIQILNKKGQQGWWRGEIYGRVGWFPANYVEEDYS yielded an abundance fitness of -0.265 ± 0.1. KYFGTAKARYDFCARDRSELSLKEGDIIVILNKKGQQGWWRGEIYGRVGWFPANYVEEDYS gave an abundance fitness of -0.376 ± 0.074. KYFGTAKARYDFCARDRSELSLKEGDIIFILNKKGQQGWWRGEIYGRVGWFPANYVEEDYS showed an abundance fitness of -0.483 ± 0.12. For KYFGTAKARYDFCARDRSELSLKEGDIICILNKKGQQGWWRGEIYGRVGWFPANYVEEDYS, the abundance fitness was -0.467 ± 0.14. KYFGTAKARYDFCARDRSELSLKEGDIIDILNKKGQQGWWRGEIYGRVGWFPANYVEEDYS showed an abundance fitness of -0.229 ± 0.23. In the case of KYFGTAKARYDFCARDRSELSLKEGDIIIILNKKGQQGWWRGEIYGRVGWFPANYVEEDYS, the abundance fitness is reported as -0.391 ± 0.15.
